Laboratory results: article PMC9352680, “A comprehensive thermodynamic model for RNA binding by the Saccharomyces cerevisiae Pumilio protein PUF4”

T1: PUF4 RNA-binding domain (Saccharomyces cerevisiae, UniProt P25339 537-888)
T1 sequence: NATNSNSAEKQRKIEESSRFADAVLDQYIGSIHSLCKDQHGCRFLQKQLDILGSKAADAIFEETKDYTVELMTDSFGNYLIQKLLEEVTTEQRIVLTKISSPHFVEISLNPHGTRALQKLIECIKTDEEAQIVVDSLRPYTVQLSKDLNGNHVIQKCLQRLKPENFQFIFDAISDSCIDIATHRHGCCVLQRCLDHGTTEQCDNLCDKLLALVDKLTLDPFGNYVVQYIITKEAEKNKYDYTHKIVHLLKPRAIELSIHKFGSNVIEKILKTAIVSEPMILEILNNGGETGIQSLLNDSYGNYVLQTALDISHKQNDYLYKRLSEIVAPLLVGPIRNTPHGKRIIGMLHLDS

B1: Id_i_S4_P3E.2_K3.1_C3.2_[C-2T]_[T-1G]_H3.1_A3.1_F3.1_T3.2 (ssRNA)
RNA: UUUGACAACUGAUCGUUCUUUCUUGUGUAUAUAUAUUCUUUCUCGAUCAGUUGUCUUU
B2: Id_i_S4_P3E.3_K3.2_C3.2_[C-2T]_[T-1G]_H3.2_A3.1_F3.1_T3.2 (ssRNA)
RNA: UUUGACAACUGAUCGUUCUUUCUUGUAUAUAUAUAUUCUUUCUCGAUCAGUUGUCUUU
B3: Id_i_S4_P3E.3_K3.2_C3.2_[C-2T]_[T-1C]_H3.2_A3.1_F3.1_T3.2 (ssRNA)
RNA: UUUGACAACUGAUCGUUCUUUCUUCUAUAUAUAUAUUCUUUCUCGAUCAGUUGUCUUU
B4: Id_ii_S4_P3E.4_K3.3_C3.2_[C-2G]_[T-1C]_H3.3_A3.1_F3.1_T3.2 (ssRNA)
RNA: UUUGACAACUGAUCGUUCUUUCUGCACACUAUAUAUUCUUUCUCGAUCAGUUGUCUUU
B5: Id_i_S4_P3E.4_K3.3_C3.2_[C-2A]_[T-1C]_H3.3_A3.1_F3.1_T3.2 (ssRNA)
RNA: UUUGACAACUGAUCGUUCUUUCUACACACUAUAUAUUCUUUCUCGAUCAGUUGUCUUU
B6: Id_i_S4_P3E.2_K3.1_C3.2_[C-2T]_[T-1C]_H3.1_A3.1_F3.1_T3.2 (ssRNA)
RNA: UUUGACAACUGAUCGUUCUUUCUUCUGUAUAUAUAUUCUUUCUCGAUCAGUUGUCUUU
B7: Id_i_S4_P3E.2_K3.1_C3.2_[C-2T]_[T-1A]_H3.1_A3.1_F3.1_T3.2 (ssRNA)
RNA: UUUGACAACUGAUCGUUCUUUCUUAUGUAUAUAUAUUCUUUCUCGAUCAGUUGUCUUU
B8: Id_i_S4_P3E.4_K3.3_C3.2_[C-2T]_[T-1C]_H3.3_A3.1_F3.1_T3.2 (ssRNA)
RNA: UUUGACAACUGAUCGUUCUUUCUUCACACUAUAUAUUCUUUCUCGAUCAGUUGUCUUU

Molecular target: T1, PUF4 RNA-binding domain
Assay: Mg; RNA-MaP; 20 mM Na-HEPES pH 7.4, 30 mM KOAc, 0.75 mM MgCl2, 0.1% Tween-20, 5% glycerol, 0.1 mg/mL BSA, 2 mM DTT; 25 C; 0.0125-409.6 nM protein
Conditions: tags: N-His6-TEV cleaved; C-SNAP kept, Cy3B-labelled; label: tethered on chip by stalled RNA polymerase

Binder	Kd [nM]
ACAAACGGUAUAUAUAUAACAAAC (ssRNA) [Id_ii_S3_P3E.3_K3.2_C3.2_[C-2G]_[T-1G]_H3.2_A3.1_F3.1_T3.2]	550
UCUCUUCGUUUAUUAUCUCUU (ssRNA) [Ib_S1_P4E.1_K4.1_C4.1_H4.1_[T1C]_[A4T]_A4.1_F4.1_T4.1]	> 2300
UCUCUUCAUAUAUUAUCUCUU (ssRNA) [Ib_S1_P4E.1_K4.1_C4.1_H4.1_[T1C]_[G2A]_A4.1_F4.1_T4.1]	487
UCUCUUGGUGUAUAUAUUUCUCUU (ssRNA) [Id_ii_S1_P3E.2_K3.1_C3.2_[C-2G]_[T-1G]_H3.1_A3.1_F3.1_T3.2_[A10T]]	15.2
ACAAACACACACUAUAUAACAAAC (ssRNA) [Id_i_S3_P3E.4_K3.3_C3.2_[C-2A]_[T-1C]_H3.3_A3.1_F3.1_T3.2]	> 2300
UCUCUUGCUGUAUAUAACUCUCUU (ssRNA) [Id_ii_S1_P3E.2_K3.1_C3.2_[C-2G]_[T-1C]_H3.1_A3.1_F3.1_T3.2_[T9A]_[A10C]]	18.8
UCUCUUCGUGUAUUAUCUCUU (ssRNA) [Ib_S1_P4E.1_K4.1_C4.1_H4.1_[T1C]_[A4G]_A4.1_F4.1_T4.1]	33.2
B1	1.47
B2	4.75
B3	68.1
B4	30.3
B5	295
B6	0.82
B7	4.77
B8	202
UCUCUUAAUAUAUUAUCUCUU (ssRNA) [Ib_S1_P4E.1_K4.1_C4.1_H4.1_[T1A]_[G2A]_A4.1_F4.1_T4.1]	564
ACAAACAUAACACUAUAUAACAAAC (ssRNA) [Id_i_S3_P3E.7_K3.3_C3.3_[T-3A]_[C-2T]_[T-1A]_H3.3_A3.1_F3.1_T3.2]	> 2300
ACAAACAGACACUAUAUAACAAAC (ssRNA) [Id_ii_S3_P3E.4_K3.3_C3.2_[C-2A]_[T-1G]_H3.3_A3.1_F3.1_T3.2]	> 2300
ACAAACAAUAUAUAUAUAACAAAC (ssRNA) [Id_ii_S3_P3E.3_K3.2_C3.2_[C-2A]_[T-1A]_H3.2_A3.1_F3.1_T3.2]	531
ACAAACCGGUAUAUAUAUAACAAAC (ssRNA) [Id_i_S3_P3E.6_K3.2_C3.3_[T-3C]_[C-2G]_[T-1G]_H3.2_A3.1_F3.1_T3.2]	1060
ACAAACAGUAUAUAUAUAACAAAC (ssRNA) [Id_i_S3_P3E.3_K3.2_C3.2_[C-2A]_[T-1G]_H3.2_A3.1_F3.1_T3.2]	385
UCUCUUGGUGUAUAUAAUUCUCUU (ssRNA) [Id_ii_S1_P3E.2_K3.1_C3.2_[C-2G]_[T-1G]_H3.1_A3.1_F3.1_T3.2_[T9A]_[A10T]]	16.3
ACAAACCUCUAUAUAUAUAACAAAC (ssRNA) [Id_i_S3_P3E.6_K3.2_C3.3_[T-3C]_[C-2T]_[T-1C]_H3.2_A3.1_F3.1_T3.2]	219
ACAAACAAGUAUAUAUAUAACAAAC (ssRNA) [Id_i_S3_P3E.6_K3.2_C3.3_[T-3A]_[C-2A]_[T-1G]_H3.2_A3.1_F3.1_T3.2]	316
UCUCUUGGUGUAUAUAUGUCUCUU (ssRNA) [Id_ii_S1_P3E.2_K3.1_C3.2_[C-2G]_[T-1G]_H3.1_A3.1_F3.1_T3.2_[A10G]]	16.4
ACAAACAUCACACUAUAUAACAAAC (ssRNA) [Id_i_S3_P3E.7_K3.3_C3.3_[T-3A]_[C-2T]_[T-1C]_H3.3_A3.1_F3.1_T3.2]	2250
ACAAACCAAACACUAUAUAACAAAC (ssRNA) [Id_i_S3_P3E.7_K3.3_C3.3_[T-3C]_[C-2A]_[T-1A]_H3.3_A3.1_F3.1_T3.2]	> 2300
